According to patent US20110268740A1:

B1: scFv-E040-msFcγ2c (Fc fusion)
chain: DADPAQAAELVMTQSPDSLAVSLGERATINCKSSQSVLYSSNNENYLAWYQQKPGQPPKLLIYWASTRESGVPDRFSGSGSGTDFTLTINSVQAEDVAVYYCQQYFMTPITFGQGTRLEIKGGSSRSSSSGGGGSGGGGEVQLLESGGALVQPGRSLRLSCRTSGLNFGDYPINWVRQAPGKGLEWVGFIKSKSYGVTTEFAASVEGRFTISRDDSRGIAYLQMNSLKTEDTAVYYCTSSSGFLYYFDYWGQGTLVTVSSASTKGPSVTSGQAGRKLEPRVPITQNPCPPLKECPPCAAPDLLGGPSVFIFPPKIKDVLMISLSPMVTCVVVDVSEDDPDVQISWFVNNVEVHTAQTQTHREDYNSTLRVVSALPIQHQDWMSGKEFKCKVNNRALPSPIEKTISKPRGPVRAPQVYVLPPPAEEMTKKEFSLTCMITGFLPAEIAVDWTSNGRTEQNYKNTATVLDSDGSYFMYSKLRVQKSTWERGSLFACSVVHEGLHNHLTTKTISRSLGK

How the values were obtained:
[1] = target: M2e-short (Influenza A virus (consensus)); test: ELISA, apparent affinity, purified scFv-msFcγ2c on immobilised M2e-short
[2] = target: M2e consensus peptide (free, soluble) (Influenza A virus (consensus of H1, H2 and H3 subtypes of human Influenza A viruses)); test: Friguet ELISA, free M2e peptide in solution

| Binder | EC50 [1] | Kd [2] | EC50 (scFv-E040-msFcγ2c) |
| --- | --- | --- | --- |
| B1 | 0.0902 nM | 0.004 µM |  |
| SLLTEVETPIRNEWGCRCNDSSD (modifications not checked) [M2e consensus peptide (free, soluble)] |  |  | 21.3 µM |
| SLLTEVETPIRNEWGC (modifications not checked) [M2e-short] |  |  | 35.5 µM |
